T1: CAPRIN-1 protein expressed on the membrane surface of human cancer cells (human, UniProt Q14444 2-709)
T1 sequence (looked up): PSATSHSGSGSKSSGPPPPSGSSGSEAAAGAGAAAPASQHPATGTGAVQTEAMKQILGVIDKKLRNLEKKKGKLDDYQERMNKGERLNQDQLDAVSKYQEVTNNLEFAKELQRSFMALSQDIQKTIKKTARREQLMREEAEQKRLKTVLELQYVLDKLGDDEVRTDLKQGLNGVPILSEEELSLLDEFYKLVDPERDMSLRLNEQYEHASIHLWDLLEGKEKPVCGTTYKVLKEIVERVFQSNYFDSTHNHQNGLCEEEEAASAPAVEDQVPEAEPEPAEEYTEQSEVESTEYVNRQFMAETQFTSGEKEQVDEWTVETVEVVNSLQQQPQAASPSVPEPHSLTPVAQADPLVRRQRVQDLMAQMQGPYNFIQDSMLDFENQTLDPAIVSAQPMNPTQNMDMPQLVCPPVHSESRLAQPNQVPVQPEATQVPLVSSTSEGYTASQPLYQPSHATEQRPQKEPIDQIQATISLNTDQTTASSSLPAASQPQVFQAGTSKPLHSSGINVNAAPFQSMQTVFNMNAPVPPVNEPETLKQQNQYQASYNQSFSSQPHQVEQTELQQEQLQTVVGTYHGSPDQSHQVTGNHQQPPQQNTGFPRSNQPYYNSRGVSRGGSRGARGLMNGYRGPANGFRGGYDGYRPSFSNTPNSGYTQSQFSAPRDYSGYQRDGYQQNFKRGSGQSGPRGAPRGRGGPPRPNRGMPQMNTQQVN


Target: T1, CAPRIN-1 protein expressed on the …
Assay: cell-based or functional assay

Binder | ADCC cytotoxic activity (51Cr release) on 22Rv1 | ADCC cytotoxic activity (51Cr release) on A-673 | ADCC cytotoxic activity (51Cr release) on BT-474 | ADCC cytotoxic activity (51Cr release) on Caki-2 | ADCC cytotoxic activity (51Cr release) on FaDu | ADCC cytotoxic activity (51Cr release) on G-361 | ADCC cytotoxic activity (51Cr release) on HEC-1-A | ADCC cytotoxic activity (51Cr release) on HT-29 | ADCC cytotoxic activity (51Cr release) on HT-1080 | ADCC cytotoxic activity (51Cr release) on HT-1376 | ADCC cytotoxic activity (51Cr release) on Hep3B | ADCC cytotoxic activity (51Cr release) on IM-9 | ADCC cytotoxic activity (51Cr release) on MDA-MB-361 | ADCC cytotoxic activity (51Cr release) on NCI-H2452 | ADCC cytotoxic activity (51Cr release) on NCI-N87 | ADCC cytotoxic activity (51Cr release) on NT/D1 | ADCC cytotoxic activity (51Cr release) on OCI-AML5 | ADCC cytotoxic activity (51Cr release) on OE33 | ADCC cytotoxic activity (51Cr release) on Panc10.5 | ADCC cytotoxic activity (51Cr release) on QG56 | other results
humanized antibody #1 (antibody, V domains shown) VH: EVQLVESGGGLVQPGGSLRLSCAASGFSLSSHSLGWVRQAPGKGLEWIGDIRSGGSAYYANWAKGRFTISRDNSKNTLYLQMNSLRAEDTAVYYCTRTNGPSDLTNRLDLWGQGTLVTVSS VL: AIQMTQSPSSLSASVGDRVTINCQASQSLYNNENLAWFQQKPGKAPKRLIYGASTLASGVSSRFSGSGSGTDFTLTISSLQPEDFAIYYCLGEFSCGSADCFAFGGGTKVEIK | ≥ 38% | ≥ 40% | ≥ 46% | ≥ 26% | ≥ 35% | ≥ 15% | ≥ 40% | ≥ 35% | ≥ 20% | ≥ 28% | ≥ 21% | ≥ 27% | ≥ 40% | ≥ 31% | ≥ 34% | ≥ 25% | ≥ 15% | ≥ 30% | ≥ 24% | ≥ 38% | ADCC cytotoxic activity (51Cr release) on RD-ES: ≥ 31%; ADCC cytotoxic activity (51Cr release) on RPM11666: ≥ 30%; ADCC cytotoxic activity (51Cr release) on Ramos: ≥ 15%; ADCC cytotoxic activity (51Cr release) on SKOV3: ≥ 27%; ADCC cytotoxic activity (51Cr release) on T24: ≥ 30%; ADCC cytotoxic activity (51Cr release) on TGBC14TKB: ≥ 25%; ADCC cytotoxic activity (51Cr release) on TT: ≥ 30%; ADCC cytotoxic activity (51Cr release) on U-87MG: ≥ 24%
humanized antibody #3 (antibody, V domains shown) VH: EVQLVESGGGLVQPGGSLRLSCAASGFSLSSHSLGWVRQAPGKGLEWIGDIRSGGSAYYANWAKGRFTISRDNSKNTLYLQMNSLRAEDTAVYYCTRTNGPSDLTNRLDLWGQGTLVTVSS VL: EQVLTQSPSSLSASVGDRVTINCQASQSLYNNENLAWFQQKPGKVPKRLIYGASTLASGVSSRFSGSGSGTEFTLTISNLQPEDFAIYYCLGEFSCGSADCFAFGGGTKVEIK | ≥ 45% | ≥ 46% | ≥ 50% | ≥ 33% | ≥ 40% | ≥ 21% | ≥ 45% | ≥ 40% | ≥ 25% | ≥ 40% | ≥ 25% | ≥ 30% | ≥ 45% | ≥ 39% | ≥ 38% | ≥ 30% | ≥ 18% | ≥ 33% | ≥ 30% | ≥ 42% | ADCC cytotoxic activity (51Cr release) on RD-ES: ≥ 40%; ADCC cytotoxic activity (51Cr release) on RPM11666: ≥ 36%; ADCC cytotoxic activity (51Cr release) on Ramos: ≥ 18%; ADCC cytotoxic activity (51Cr release) on SKOV3: ≥ 31%; ADCC cytotoxic activity (51Cr release) on T24: ≥ 33%; ADCC cytotoxic activity (51Cr release) on TGBC14TKB: ≥ 30%; ADCC cytotoxic activity (51Cr release) on TT: ≥ 35%; ADCC cytotoxic activity (51Cr release) on U-87MG: ≥ 29%
